According to patent publication US20260001928A1 (CORTERIA PHARMACEUTICALS, priority 2022, published 2026):
*1 amine or outer side, *2 acyl side, *3 side chain or, on linkers, in order; H or OH if unused. Side-chain parts run from the residue outwards. [ ]: non-standard residue; d: D form. The star is where a group is joined. C16 diacid = O=C(O)CCCCCCCCCCCCCCC(=O)*; γGlu = O=C(O)[C@H](CCC(=O)[*:2])N[*:1]; C14 diacid = O=C(O)CCCCCCCCCCCCC(=O)*; Api = NC1(C(=O)O)CCNCC1; AEEA = NCCOCCOCC(=O)O; Aib = CC(C)(N)C(=O)O

T1: CRF1R receptor (UniProt P34998 24-415, limits assumed)
T1 sequence (looked up): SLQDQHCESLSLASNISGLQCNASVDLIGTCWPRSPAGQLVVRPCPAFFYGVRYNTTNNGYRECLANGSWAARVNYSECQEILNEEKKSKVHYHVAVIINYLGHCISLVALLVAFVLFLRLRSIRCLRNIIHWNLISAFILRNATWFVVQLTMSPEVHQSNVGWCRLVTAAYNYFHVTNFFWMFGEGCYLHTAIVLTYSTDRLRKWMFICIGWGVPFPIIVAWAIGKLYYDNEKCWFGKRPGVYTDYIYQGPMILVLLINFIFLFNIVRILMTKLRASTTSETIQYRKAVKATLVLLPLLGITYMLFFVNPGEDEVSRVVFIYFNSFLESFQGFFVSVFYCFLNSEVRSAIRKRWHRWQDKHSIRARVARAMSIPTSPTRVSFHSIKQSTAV

B1: SEQ ID NO 172 (peptide)
peptide: Ac-IVLSLD[dV]PIKLK([AEEA-AEEA-γGlu-C14 diacid])KILLEQEKQKKQREQAETN[Api]QILAQV-NH2
SMILES: CC[C@H](C)[C@H](NC(C)=O)C(=O)N[C@H](C(=O)N[C@@H](CC(C)C)C(=O)N[C@@H](CO)C(=O)N[C@@H](CC(C)C)C(=O)N[C@@H](CC(=O)O)C(=O)N[C@@H](C(=O)N1CCC[C@H]1C(=O)N[C@H](C(=O)N[C@@H](CCCCN)C(=O)N[C@@H](CC(C)C)C(=O)N[C@@H](CCCCNC(=O)COCCOCCNC(=O)COCCOCCNC(=O)CC[C@H](NC(=O)CCCCCCCCCCCCC(=O)O)C(=O)O)C(=O)N[C@@H](CCCCN)C(=O)N[C@H](C(=O)N[C@@H](CC(C)C)C(=O)N[C@@H](CC(C)C)C(=O)N[C@@H](CCC(=O)O)C(=O)N[C@@H](CCC(N)=O)C(=O)N[C@@H](CCC(=O)O)C(=O)N[C@@H](CCCCN)C(=O)N[C@@H](CCC(N)=O)C(=O)N[C@@H](CCCCN)C(=O)N[C@@H](CCCCN)C(=O)N[C@@H](CCC(N)=O)C(=O)N[C@@H](CCCNC(=N)N)C(=O)N[C@@H](CCC(=O)O)C(=O)N[C@@H](CCC(N)=O)C(=O)N[C@@H](C)C(=O)N[C@@H](CCC(=O)O)C(=O)N[C@H](C(=O)N[C@@H](CC(N)=O)C(=O)NC1(C(=O)N[C@@H](CCC(N)=O)C(=O)N[C@H](C(=O)N[C@@H](CC(C)C)C(=O)N[C@@H](C)C(=O)N[C@@H](CCC(N)=O)C(=O)N[C@H](C(N)=O)C(C)C)[C@@H](C)CC)CCNCC1)[C@@H](C)O)[C@@H](C)CC)[C@@H](C)CC)C(C)C)C(C)C
B2: SEQ ID NO 173 (peptide)
peptide: Ac-IVLSLD[dV]PIKLK([AEEA-AEEA-γGlu-C14 diacid])KILLEQEKQK[Aib]QREQAETN[Api]QILAQV-NH2
SMILES: CC[C@H](C)[C@H](NC(C)=O)C(=O)N[C@H](C(=O)N[C@@H](CC(C)C)C(=O)N[C@@H](CO)C(=O)N[C@@H](CC(C)C)C(=O)N[C@@H](CC(=O)O)C(=O)N[C@@H](C(=O)N1CCC[C@H]1C(=O)N[C@H](C(=O)N[C@@H](CCCCN)C(=O)N[C@@H](CC(C)C)C(=O)N[C@@H](CCCCNC(=O)COCCOCCNC(=O)COCCOCCNC(=O)CC[C@H](NC(=O)CCCCCCCCCCCCC(=O)O)C(=O)O)C(=O)N[C@@H](CCCCN)C(=O)N[C@H](C(=O)N[C@@H](CC(C)C)C(=O)N[C@@H](CC(C)C)C(=O)N[C@@H](CCC(=O)O)C(=O)N[C@@H](CCC(N)=O)C(=O)N[C@@H](CCC(=O)O)C(=O)N[C@@H](CCCCN)C(=O)N[C@@H](CCC(N)=O)C(=O)N[C@@H](CCCCN)C(=O)NC(C)(C)C(=O)N[C@@H](CCC(N)=O)C(=O)N[C@@H](CCCNC(=N)N)C(=O)N[C@@H](CCC(=O)O)C(=O)N[C@@H](CCC(N)=O)C(=O)N[C@@H](C)C(=O)N[C@@H](CCC(=O)O)C(=O)N[C@H](C(=O)N[C@@H](CC(N)=O)C(=O)NC1(C(=O)N[C@@H](CCC(N)=O)C(=O)N[C@H](C(=O)N[C@@H](CC(C)C)C(=O)N[C@@H](C)C(=O)N[C@@H](CCC(N)=O)C(=O)N[C@H](C(N)=O)C(C)C)[C@@H](C)CC)CCNCC1)[C@@H](C)O)[C@@H](C)CC)[C@@H](C)CC)C(C)C)C(C)C
B3: SEQ ID NO 169 (peptide)
peptide: Ac-IVLSLD[dV]PIKLK([γGlu-C14 diacid])KILLEQEKQKAQREQAETN[Api]QILAQV-NH2
SMILES: CC[C@H](C)[C@H](NC(C)=O)C(=O)N[C@H](C(=O)N[C@@H](CC(C)C)C(=O)N[C@@H](CO)C(=O)N[C@@H](CC(C)C)C(=O)N[C@@H](CC(=O)O)C(=O)N[C@@H](C(=O)N1CCC[C@H]1C(=O)N[C@H](C(=O)N[C@@H](CCCCN)C(=O)N[C@@H](CC(C)C)C(=O)N[C@@H](CCCCNC(=O)CC[C@H](NC(=O)CCCCCCCCCCCCC(=O)O)C(=O)O)C(=O)N[C@@H](CCCCN)C(=O)N[C@H](C(=O)N[C@@H](CC(C)C)C(=O)N[C@@H](CC(C)C)C(=O)N[C@@H](CCC(=O)O)C(=O)N[C@@H](CCC(N)=O)C(=O)N[C@@H](CCC(=O)O)C(=O)N[C@@H](CCCCN)C(=O)N[C@@H](CCC(N)=O)C(=O)N[C@@H](CCCCN)C(=O)N[C@@H](C)C(=O)N[C@@H](CCC(N)=O)C(=O)N[C@@H](CCCNC(=N)N)C(=O)N[C@@H](CCC(=O)O)C(=O)N[C@@H](CCC(N)=O)C(=O)N[C@@H](C)C(=O)N[C@@H](CCC(=O)O)C(=O)N[C@H](C(=O)N[C@@H](CC(N)=O)C(=O)NC1(C(=O)N[C@@H](CCC(N)=O)C(=O)N[C@H](C(=O)N[C@@H](CC(C)C)C(=O)N[C@@H](C)C(=O)N[C@@H](CCC(N)=O)C(=O)N[C@H](C(N)=O)C(C)C)[C@@H](C)CC)CCNCC1)[C@@H](C)O)[C@@H](C)CC)[C@@H](C)CC)C(C)C)C(C)C
B4: SEQ ID NO 3 (peptide)
peptide: Ac-VLSLD[dV]PIKLK([γGlu-C16 diacid])QILLKQERQKKQREQAEKNKQILEQV-NH2
B5: SEQ ID NO 174 (peptide)
peptide: Ac-IVLSLD[dV]PIKLK([AEEA-γGlu-γGlu-C14 diacid])KILLEQEKQKKQREQAETN[Aib]QILAQV-NH2
B6: SEQ ID NO 171 (peptide)
peptide: Ac-IVLSLD[dV]PIKLK([AEEA-AEEA-γGlu-C14 diacid])KILLEQEKQKKQREQAETN[Aib]QILAQV-NH2
SMILES: CC[C@H](C)[C@H](NC(C)=O)C(=O)N[C@H](C(=O)N[C@@H](CC(C)C)C(=O)N[C@@H](CO)C(=O)N[C@@H](CC(C)C)C(=O)N[C@@H](CC(=O)O)C(=O)N[C@@H](C(=O)N1CCC[C@H]1C(=O)N[C@H](C(=O)N[C@@H](CCCCN)C(=O)N[C@@H](CC(C)C)C(=O)N[C@@H](CCCCNC(=O)COCCOCCNC(=O)COCCOCCNC(=O)CC[C@H](NC(=O)CCCCCCCCCCCCC(=O)O)C(=O)O)C(=O)N[C@@H](CCCCN)C(=O)N[C@H](C(=O)N[C@@H](CC(C)C)C(=O)N[C@@H](CC(C)C)C(=O)N[C@@H](CCC(=O)O)C(=O)N[C@@H](CCC(N)=O)C(=O)N[C@@H](CCC(=O)O)C(=O)N[C@@H](CCCCN)C(=O)N[C@@H](CCC(N)=O)C(=O)N[C@@H](CCCCN)C(=O)N[C@@H](CCCCN)C(=O)N[C@@H](CCC(N)=O)C(=O)N[C@@H](CCCNC(=N)N)C(=O)N[C@@H](CCC(=O)O)C(=O)N[C@@H](CCC(N)=O)C(=O)N[C@@H](C)C(=O)N[C@@H](CCC(=O)O)C(=O)N[C@H](C(=O)N[C@@H](CC(N)=O)C(=O)NC(C)(C)C(=O)N[C@@H](CCC(N)=O)C(=O)N[C@H](C(=O)N[C@@H](CC(C)C)C(=O)N[C@@H](C)C(=O)N[C@@H](CCC(N)=O)C(=O)N[C@H](C(N)=O)C(C)C)[C@@H](C)CC)[C@@H](C)O)[C@@H](C)CC)[C@@H](C)CC)C(C)C)C(C)C
B7: SEQ ID NO 170 (peptide)
peptide: Ac-IVLSLD[dV]PIKLK([γGlu-C14 diacid])KILLEQEKQK[Aib]QREQAETN[Api]QILAQV-NH2
SMILES: CC[C@H](C)[C@H](NC(C)=O)C(=O)N[C@H](C(=O)N[C@@H](CC(C)C)C(=O)N[C@@H](CO)C(=O)N[C@@H](CC(C)C)C(=O)N[C@@H](CC(=O)O)C(=O)N[C@@H](C(=O)N1CCC[C@H]1C(=O)N[C@H](C(=O)N[C@@H](CCCCN)C(=O)N[C@@H](CC(C)C)C(=O)N[C@@H](CCCCNC(=O)CC[C@H](NC(=O)CCCCCCCCCCCCC(=O)O)C(=O)O)C(=O)N[C@@H](CCCCN)C(=O)N[C@H](C(=O)N[C@@H](CC(C)C)C(=O)N[C@@H](CC(C)C)C(=O)N[C@@H](CCC(=O)O)C(=O)N[C@@H](CCC(N)=O)C(=O)N[C@@H](CCC(=O)O)C(=O)N[C@@H](CCCCN)C(=O)N[C@@H](CCC(N)=O)C(=O)N[C@@H](CCCCN)C(=O)NC(C)(C)C(=O)N[C@@H](CCC(N)=O)C(=O)N[C@@H](CCCNC(=N)N)C(=O)N[C@@H](CCC(=O)O)C(=O)N[C@@H](CCC(N)=O)C(=O)N[C@@H](C)C(=O)N[C@@H](CCC(=O)O)C(=O)N[C@H](C(=O)N[C@@H](CC(N)=O)C(=O)NC1(C(=O)N[C@@H](CCC(N)=O)C(=O)N[C@H](C(=O)N[C@@H](CC(C)C)C(=O)N[C@@H](C)C(=O)N[C@@H](CCC(N)=O)C(=O)N[C@H](C(N)=O)C(C)C)[C@@H](C)CC)CCNCC1)[C@@H](C)O)[C@@H](C)CC)[C@@H](C)CC)C(C)C)C(C)C

biological target: T1, CRF1R receptor; assay: cell-based or functional assay

| Emax (% I) [%] | EC50 [nM] | Binder |
| --- | --- | --- |
| -6 | – | B1 |
| -1 | – | B2 |
| 13 | – | B3 |
| 27 | > 250 | B4 |
| 11 | > 250 | B5 |
| 0 | – | B6 |
| 5 | – | B7 |

biological target: human corticotropin-releasing factor 2a (CRF2a receptor) (human), Q13324; assay: cell-based or functional assay
Sequence (Q13324 20-411): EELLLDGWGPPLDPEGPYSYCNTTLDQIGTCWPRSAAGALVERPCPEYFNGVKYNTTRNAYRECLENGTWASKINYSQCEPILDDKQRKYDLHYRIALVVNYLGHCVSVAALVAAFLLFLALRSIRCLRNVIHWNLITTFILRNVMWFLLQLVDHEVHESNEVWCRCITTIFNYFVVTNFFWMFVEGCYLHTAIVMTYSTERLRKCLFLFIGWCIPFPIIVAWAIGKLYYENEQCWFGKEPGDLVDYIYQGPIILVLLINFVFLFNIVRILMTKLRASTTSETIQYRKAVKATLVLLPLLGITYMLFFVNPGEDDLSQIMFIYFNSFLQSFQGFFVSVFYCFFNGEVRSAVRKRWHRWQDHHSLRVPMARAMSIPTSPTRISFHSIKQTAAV

| EC50 [nM] (cAMP) | Binder |
| --- | --- |
| 16.1 | B1 |
| 28.1 | B2 |
| 1.34 | B3 |
| 0.16 | B4 |
| 16.2 | B5 |
| 5.79 | B6 |
| 1.28 | B7 |
